B1: STAMP: SRC-1 and TIF2 Associated Modulatory Protein, 1277 amino acid human polypeptide, expressed from transfected plasmid (protein)
chain: MARDLEETASSSEDEEVISQEDHPCIMWTGGCRRIPVLVFHADAILTKDNNIRVIGERYHLSYKIVRTDSRLVRSILTAHGFHEVHPSSTDYNLMWTGSHLKPFLLRTLSEAQKVNHFPRSYELTRKDRLYKNIIRMQHTHGFKVFHILPQTFLLPAEYAEFCNSYSKDRGPWIVKPVASSRGRGVYLINNPNQISLEENILVSRYINNPLLIDDFKFDVRLYVLVTSYDPLVIYLYEEGLARFATVRYDQGAKNIRNQFMHLTNYSVNKKSGDYVSCDDPEVEDYGNKWSMSAMLRYLKQEGRDTTALMAHVEDLIIKTIISAELAIATACKTFVPHRSSCFELYGFDVLIDSTLKPWLLEVNLSPSLACDAPLDLKIKASMISDMFTVVGFVCQDPAQRASTRPIYPTFESSRRNPFQKPQRCRPLSASDAEMKNLVGSAREKGPGKLGGSVLGLSMEEIKVLRRVKEENDRRGGFIRIFPTSETWEIYGSYLEHKTSMNYMLATRLFQDRMTADGAPELKIESLNSKAKLHAALYERKLLSLEVRKRRRRSSRLRAMRPKYPVITQPAEMNVKTETESEEEEEVALDNEDEEQEASQEESAGFLRENQAKYTPSLTALVENTPKENSMKVREWNNKGGHCCKLETQELEPKFNLMQILQDNGNLSKMQARIAFSAYLQHVQIRLMKDSGGQTFSASWAAKEDEQMELVVRFLKRASNNLQHSLRMVLPSRRLALLERRRILAHQLGDFIIVYNKETEQMAEKKSKKKVEEEEEDGVNMENFQEFIRQASEAELEEVLTFYTQKNKSASVFLGTHSKISKNNNNYSDSGAKGDHPETIMEEVKIKPPKQQQTTEIHSDKLSRFTTSAEKEAKLVYSNSSSGPTATLQKIPNTHLSSVTTSDLSPGPCHHSSLSQIPSAIPSMPHQPTILLNTVSASASPCLHPGAQNIPSPTGLPRCRSGSHTIGPFSSFQSAAHIYSQKLSRPSSAKAGSCYLNKHHSGIAKTQKEGEDASLYSKRYNQSMVTAELQRLAEKQAARQYSPSSHINLLTQQVTNLNLATGIINRSSASAPPTLRPIISPSGPTWSTQSDPQAPENHSSSPGSRSLQTGGFAWEGEVENNVYSQATGVVPQHKYHPTAGSYQLQFALQQLEQQKLQSRQLLDQSRARHQAIFGSQTLPNSNLWTMNNGAGCRISSATASGQKPTTLPQKVVPPPSSCASLVPKPPPNHEQVLRRATSQKASKGSSAEGQLNGLQSSLNPAASVPITSSTDPAHTKI
B2: STAMP834C: STAMP fragment amino acids 834-1277, receptor interaction domain (RID) (protein)
chain: GDHPETIMEEVKIKPPKQQQTTEIHSDKLSRFTTSAEKEAKLVYSNSSSGPTATLQKIPNTHLSSVTTSDLSPGPCHHSSLSQIPSAIPSMPHQPTILLNTVSASASPCLHPGAQNIPSPTGLPRCRSGSHTIGPFSSFQSAAHIYSQKLSRPSSAKAGSCYLNKHHSGIAKTQKEGEDASLYSKRYNQSMVTAELQRLAEKQAARQYSPSSHINLLTQQVTNLNLATGIINRSSASAPPTLRPIISPSGPTWSTQSDPQAPENHSSSPGSRSLQTGGFAWEGEVENNVYSQATGVVPQHKYHPTAGSYQLQFALQQLEQQKLQSRQLLDQSRARHQAIFGSQTLPNSNLWTMNNGAGCRISSATASGQKPTTLPQKVVPPPSSCASLVPKPPPNHEQVLRRATSQKASKGSSAEGQLNGLQSSLNPAASVPITSSTDPAHTKI

Columns and labels:
androgen receptor (AR) = biological target: T1, androgen receptor (AR) (Homo sapiens, UniProt P10275); experiment: AR-mediated induction of GREtkLUC reporter in CV-1 cells; assay type: cell-based; conditions: R1881
T1 construct: the whole cell actions of TIF2 with full length AR and TRβ; expressed in transfected cells; host or cells: CV-1
T1 sequence (P10275 1-920): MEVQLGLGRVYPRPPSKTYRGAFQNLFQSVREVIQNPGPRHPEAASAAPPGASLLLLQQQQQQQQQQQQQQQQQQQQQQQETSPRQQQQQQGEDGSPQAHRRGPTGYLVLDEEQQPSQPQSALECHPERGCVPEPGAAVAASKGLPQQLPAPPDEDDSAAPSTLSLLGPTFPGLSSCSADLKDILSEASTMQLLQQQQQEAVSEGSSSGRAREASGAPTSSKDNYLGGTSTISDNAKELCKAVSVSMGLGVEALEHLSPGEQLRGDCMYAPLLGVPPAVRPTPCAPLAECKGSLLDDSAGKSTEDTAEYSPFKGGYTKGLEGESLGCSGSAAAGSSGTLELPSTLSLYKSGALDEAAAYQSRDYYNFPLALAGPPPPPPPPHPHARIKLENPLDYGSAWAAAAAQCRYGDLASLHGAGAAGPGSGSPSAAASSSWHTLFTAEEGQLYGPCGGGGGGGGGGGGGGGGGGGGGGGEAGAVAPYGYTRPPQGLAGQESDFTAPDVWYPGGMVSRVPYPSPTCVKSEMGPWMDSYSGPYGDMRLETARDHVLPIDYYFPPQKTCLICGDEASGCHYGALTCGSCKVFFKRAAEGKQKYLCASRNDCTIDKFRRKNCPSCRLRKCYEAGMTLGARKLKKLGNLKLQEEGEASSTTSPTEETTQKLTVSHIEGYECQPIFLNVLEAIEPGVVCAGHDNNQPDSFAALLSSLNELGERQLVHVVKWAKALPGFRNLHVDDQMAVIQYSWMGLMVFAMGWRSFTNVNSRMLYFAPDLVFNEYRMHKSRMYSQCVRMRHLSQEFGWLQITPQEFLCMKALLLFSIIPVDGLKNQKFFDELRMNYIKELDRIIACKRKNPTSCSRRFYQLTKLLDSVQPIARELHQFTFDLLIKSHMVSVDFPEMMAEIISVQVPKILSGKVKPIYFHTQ
Description: FIG. 6D1-2 illustrate the effects of STAMP and TIF2 on androgen receptor (AR, FIG. 6D1) and thyroid receptor β (TRβ, FIG. 6D2) expression. […] Luciferase activities, normalized to the internal Renilla control values, and the fold changes in EC50 and fold induction were determined and plotted as in FIG. 4B.

ERα = biological target: T2, ERα (Homo sapiens, UniProt P03372); experiment: Mammalian two-hybrid assay with VP16 full length receptor: ERα; assay type: cell-based; conditions: 1 μM estradiol
T2 construct: plus VP16 fused to the indicated full length receptors; expressed in transfected cells; host or cells: CV-1
T2 sequence (P03372 1-595): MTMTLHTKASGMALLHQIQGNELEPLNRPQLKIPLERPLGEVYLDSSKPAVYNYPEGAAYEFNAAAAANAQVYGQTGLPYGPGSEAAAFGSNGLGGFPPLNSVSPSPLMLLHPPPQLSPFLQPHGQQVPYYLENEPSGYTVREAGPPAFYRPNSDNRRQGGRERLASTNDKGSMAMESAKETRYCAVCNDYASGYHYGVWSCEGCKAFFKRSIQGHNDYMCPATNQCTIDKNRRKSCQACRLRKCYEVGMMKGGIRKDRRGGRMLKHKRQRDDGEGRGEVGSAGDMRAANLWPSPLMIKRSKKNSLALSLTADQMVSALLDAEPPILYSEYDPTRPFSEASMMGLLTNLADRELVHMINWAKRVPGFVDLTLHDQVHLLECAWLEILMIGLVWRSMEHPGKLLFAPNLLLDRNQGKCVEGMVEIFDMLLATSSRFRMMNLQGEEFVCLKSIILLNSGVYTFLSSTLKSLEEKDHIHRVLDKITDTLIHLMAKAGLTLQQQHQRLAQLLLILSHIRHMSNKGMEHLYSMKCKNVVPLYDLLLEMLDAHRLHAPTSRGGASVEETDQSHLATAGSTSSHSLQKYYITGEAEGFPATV
Description: FIG. 6C1-3 illustrate the association of STAMP with assorted steroid/nuclear receptors, including glucocorticoid receptors (GRs), progesterone receptors (PRs), androgen receptors (ARs), estrogen receptors (ER α or β), PPARγ2 receptors, thyroid receptor beta (TR), and retinoid (α) receptors (RAR α or RXR α). Triplicate samples of CV-1 cells were transfected (as described for FIG. 6B) with GAL, or GAL fused to TIF2.4 or STAMP834C, plus VP16 fused to the indicated full length receptors and incubated with the appropriate steroid (1 μM Dex, 20 nM R5020, 1 nM R1881, 0.1 μM triiodothyronine, or 1 μM estradiol, roziglitazone, or 9-cis-retinoic acid). The average relative luciferase activities of 2-3 experiments±S.E.M. were then plotted. FIG. 6C1 illustrates the effects of STAMP association upon GR, PR and AR induced expression. FIG. 6C2 illustrates the effects of STAMP association upon ERα, ERβ and PPARγ2 induced expression. FIG. 6C3 illustrates the effects of STAMP association upon TR, RARα and RXRα induced expression.
These assays were conducted as described (He et al., 2002). […]

Row | Molecule | left-shift of the dose-response curve of ARs (androgen receptor (AR); STAMP added by itself) | fold induction by AR (androgen receptor (AR); STAMP with TIF2) | fold induction by AR (androgen receptor (AR); STAMP without TIF2) | left-shift of the dose-response curve of ARs (androgen receptor (AR); in the presence of TIF2) | interaction with estrogen receptor α (ERα)
1 | B1 | not when added by itself | no additional effect | increases the fold induction | augments the left-shift | –
2 | B2 | – | – | – | – | lack of interaction

— patent US7867500B2, “Cofactor that modulates steroid receptor activities” (The United States of America as represented by the …, priority 2004, dated 2011)
